Reference: the supplement of paper PMC10065799, “High-throughput profiling of sequence recognition by tyrosine kinases and SH2 domains using bacterial peptide display” (eLife, 2023)

biological target: c-Src SH2; test: SH2 binding enrichment of the phosphorylated peptide, bacterial display (enrichment ratio); higher = better substrate or ligand; peptides without Tyr show the background
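Throughout, for SH2 binding enrichment of the phosphorylated peptide, bacterial display: peptide library displayed on the E. coli surface as eCPX fusions, selected cells deep-sequenced, score is each peptide's frequency after selection divided by its frequency in the input.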
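Throughout, for phosphorylation enrichment, bacterial display: 11-residue human phosphosite peptides and single-mutation variants displayed on the E. coli surface, counted by deep sequencing, each peptide's frequency after selection divided by its frequency in the unselected input library; frequency after pTyr selection over input frequency; kinase dosed for 20-30% of maximal phosphorylation in three min.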

| Sequence | SH2 binding enrichment |
| --- | --- |
| EIIPFYGMSSY [FNDC3B_Y175_T179S] | 6.51 |
| LLLLFYVVRYC [MPZ_Y177] | 1.33 |
| NGEDPYAGSTD [XRCC1_Y515] | 0.547 |
| VTSLKYSTPPY [BRIP1_Y916_S919P] | 0.434 |
| CPFNLYAAQLS [HGD_Y40_E42A_YF] | 0.537 |
| HEEDNYIEMIP [NWD2_Y566_L569M] | 0.467 |
| MFQVQYNSSVD [LRFN1_Y458_YF] | 0.515 |
| PEADKYRLTFA [FGG_Y300_YF] | 0.475 |
| DEDEEYEYMNR [ERBB3_Y1197] | 0.634 |
| YLEKYYKFGCR [NNMT_Y25_S29C] | 0.681 |
| SPRDTYSDRSG [CTPS1_Y567] | 0.479 |
| LSSEMCVKSFT [F5_Y2149_Y2149C_YF] | 0.641 |
| LNPDGYEKAYE [CPXM2_Y427] | 4.86 |
| AHLLQYNHRVK [LGALS3_Y221] | 0.874 |
| QDEPTYARSSK [PEAK1_Y616_H611Q] | 0.561 |
| LFMGDYVDRGF [PPP2CA_Y86_YF] | 0.54 |

biological target: Grb2 SH2 (UniProt P62993); test: as above
Sequence (P62993 whole entry, looked up): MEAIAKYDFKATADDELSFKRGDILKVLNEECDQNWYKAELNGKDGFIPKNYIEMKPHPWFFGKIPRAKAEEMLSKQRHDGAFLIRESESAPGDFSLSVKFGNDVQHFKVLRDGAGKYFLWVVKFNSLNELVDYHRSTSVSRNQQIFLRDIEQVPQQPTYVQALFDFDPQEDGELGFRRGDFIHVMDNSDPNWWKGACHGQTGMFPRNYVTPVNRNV

| Sequence | SH2 binding enrichment |
| --- | --- |
| EIIPFYGMSSY [FNDC3B_Y175_T179S] | 0.855 |
| LLLLFYVVRYC [MPZ_Y177] | 1.77 |
| NGEDPYAGSTD [XRCC1_Y515] | 0.638 |
| VTSLKYSTPPY [BRIP1_Y916_S919P] | 0.955 |
| CPFNLYAAQLS [HGD_Y40_E42A_YF] | 0.726 |
| HEEDNYIEMIP [NWD2_Y566_L569M] | 0.553 |
| MFQVQYNSSVD [LRFN1_Y458_YF] | 0.776 |
| PEADKYRLTFA [FGG_Y300_YF] | 0.75 |
| DEDEEYEYMNR [ERBB3_Y1197] | 1.02 |
| YLEKYYKFGCR [NNMT_Y25_S29C] | 0.938 |
| SPRDTYSDRSG [CTPS1_Y567] | 0.76 |
| LSSEMCVKSFT [F5_Y2149_Y2149C_YF] | 1 |
| LNPDGYEKAYE [CPXM2_Y427] | 0.93 |
| AHLLQYNHRVK [LGALS3_Y221] | 1.03 |
| QDEPTYARSSK [PEAK1_Y616_H611Q] | 0.816 |
| LFMGDYVDRGF [PPP2CA_Y86_YF] | 1.04 |

biological target: SHP2-C SH2; test: as above

| Sequence | SH2 binding enrichment |
| --- | --- |
| EIIPFYGMSSY [FNDC3B_Y175_T179S] | 0.828 |
| LLLLFYVVRYC [MPZ_Y177] | 1.53 |
| NGEDPYAGSTD [XRCC1_Y515] | 0.782 |
| VTSLKYSTPPY [BRIP1_Y916_S919P] | 1.31 |
| CPFNLYAAQLS [HGD_Y40_E42A_YF] | 0.811 |
| HEEDNYIEMIP [NWD2_Y566_L569M] | 0.747 |
| MFQVQYNSSVD [LRFN1_Y458_YF] | 0.548 |
| PEADKYRLTFA [FGG_Y300_YF] | 0.673 |
| DEDEEYEYMNR [ERBB3_Y1197] | 0.926 |
| YLEKYYKFGCR [NNMT_Y25_S29C] | 0.94 |
| SPRDTYSDRSG [CTPS1_Y567] | 0.503 |
| LSSEMCVKSFT [F5_Y2149_Y2149C_YF] | 0.603 |
| LNPDGYEKAYE [CPXM2_Y427] | 0.729 |
| AHLLQYNHRVK [LGALS3_Y221] | 1.13 |
| QDEPTYARSSK [PEAK1_Y616_H611Q] | 0.69 |
| LFMGDYVDRGF [PPP2CA_Y86_YF] | 0.577 |

biological target: Fyn (UniProt P06241); test: phosphorylation enrichment, bacterial display (enrichment ratio); higher = better substrate or ligand; peptides without Tyr show the background
Sequence (P06241 whole entry, looked up): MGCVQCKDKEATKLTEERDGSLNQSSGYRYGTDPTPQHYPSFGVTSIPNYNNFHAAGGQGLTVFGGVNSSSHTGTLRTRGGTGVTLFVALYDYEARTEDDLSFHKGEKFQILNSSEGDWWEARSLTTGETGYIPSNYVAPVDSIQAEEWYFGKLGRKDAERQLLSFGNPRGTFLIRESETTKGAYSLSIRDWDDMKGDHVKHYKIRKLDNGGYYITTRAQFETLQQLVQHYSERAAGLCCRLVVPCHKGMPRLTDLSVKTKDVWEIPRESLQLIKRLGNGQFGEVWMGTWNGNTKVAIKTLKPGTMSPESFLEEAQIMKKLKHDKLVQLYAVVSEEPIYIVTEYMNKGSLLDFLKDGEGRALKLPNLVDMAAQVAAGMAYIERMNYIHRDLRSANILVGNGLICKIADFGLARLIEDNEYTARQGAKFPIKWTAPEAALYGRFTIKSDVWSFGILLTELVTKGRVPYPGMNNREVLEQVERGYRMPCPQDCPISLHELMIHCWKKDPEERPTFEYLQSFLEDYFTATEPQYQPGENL

| Sequence | phosphorylation enrichment |
| --- | --- |
| EIIPFYGMSSY [FNDC3B_Y175_T179S] | 0.777 |
| LLLLFYVVRYC [MPZ_Y177] | 0.463 |
| NGEDPYAGSTD [XRCC1_Y515] | 0.524 |
| VTSLKYSTPPY [BRIP1_Y916_S919P] | 0.366 |
| CPFNLYAAQLS [HGD_Y40_E42A_YF] | 0.648 |
| HEEDNYIEMIP [NWD2_Y566_L569M] | 0.67 |
| MFQVQYNSSVD [LRFN1_Y458_YF] | 0.394 |
| PEADKYRLTFA [FGG_Y300_YF] | 0.553 |
| DEDEEYEYMNR [ERBB3_Y1197] | 0.523 |
| YLEKYYKFGCR [NNMT_Y25_S29C] | 0.549 |
| SPRDTYSDRSG [CTPS1_Y567] | 0.443 |
| LSSEMCVKSFT [F5_Y2149_Y2149C_YF] | 0.683 |
| LNPDGYEKAYE [CPXM2_Y427] | 0.797 |
| AHLLQYNHRVK [LGALS3_Y221] | 0.288 |
| QDEPTYARSSK [PEAK1_Y616_H611Q] | 0.554 |
| LFMGDYVDRGF [PPP2CA_Y86_YF] | 0.814 |

biological target: Hck (UniProt P08631); test: as above
Sequence (P08631 whole entry, looked up): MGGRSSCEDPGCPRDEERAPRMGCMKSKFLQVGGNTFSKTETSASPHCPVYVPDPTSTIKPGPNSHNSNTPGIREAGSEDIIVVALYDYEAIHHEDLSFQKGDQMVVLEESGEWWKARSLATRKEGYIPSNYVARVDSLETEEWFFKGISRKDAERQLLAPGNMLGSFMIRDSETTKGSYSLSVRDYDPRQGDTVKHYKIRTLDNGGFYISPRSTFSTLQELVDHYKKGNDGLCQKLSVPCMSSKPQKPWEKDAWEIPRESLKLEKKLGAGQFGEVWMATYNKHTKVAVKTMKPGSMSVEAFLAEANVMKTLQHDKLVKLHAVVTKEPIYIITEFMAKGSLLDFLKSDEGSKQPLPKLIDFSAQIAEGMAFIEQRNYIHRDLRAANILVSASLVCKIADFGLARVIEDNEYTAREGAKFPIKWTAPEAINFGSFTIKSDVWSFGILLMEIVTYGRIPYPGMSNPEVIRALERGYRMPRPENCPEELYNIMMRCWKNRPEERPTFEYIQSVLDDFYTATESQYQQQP

| Sequence | phosphorylation enrichment |
| --- | --- |
| EIIPFYGMSSY [FNDC3B_Y175_T179S] | 0.967 |
| LLLLFYVVRYC [MPZ_Y177] | 0.438 |
| NGEDPYAGSTD [XRCC1_Y515] | 0.581 |
| VTSLKYSTPPY [BRIP1_Y916_S919P] | 0.396 |
| CPFNLYAAQLS [HGD_Y40_E42A_YF] | 1.09 |
| HEEDNYIEMIP [NWD2_Y566_L569M] | 0.822 |
| MFQVQYNSSVD [LRFN1_Y458_YF] | 0.436 |
| PEADKYRLTFA [FGG_Y300_YF] | 0.76 |
| DEDEEYEYMNR [ERBB3_Y1197] | 0.567 |
| YLEKYYKFGCR [NNMT_Y25_S29C] | 0.564 |
| SPRDTYSDRSG [CTPS1_Y567] | 0.507 |
| LSSEMCVKSFT [F5_Y2149_Y2149C_YF] | 0.971 |
| LNPDGYEKAYE [CPXM2_Y427] | 0.489 |
| AHLLQYNHRVK [LGALS3_Y221] | 0.366 |
| QDEPTYARSSK [PEAK1_Y616_H611Q] | 0.838 |
| LFMGDYVDRGF [PPP2CA_Y86_YF] | 0.673 |

test system: c-Src; test: as above

| Sequence | phosphorylation enrichment |
| --- | --- |
| EIIPFYGMSSY [FNDC3B_Y175_T179S] | 0.616 |
| LLLLFYVVRYC [MPZ_Y177] | 0.492 |
| NGEDPYAGSTD [XRCC1_Y515] | 0.55 |
| VTSLKYSTPPY [BRIP1_Y916_S919P] | 0.389 |
| CPFNLYAAQLS [HGD_Y40_E42A_YF] | 0.961 |
| HEEDNYIEMIP [NWD2_Y566_L569M] | 1.16 |
| MFQVQYNSSVD [LRFN1_Y458_YF] | 0.373 |
| PEADKYRLTFA [FGG_Y300_YF] | 0.568 |
| DEDEEYEYMNR [ERBB3_Y1197] | 0.54 |
| YLEKYYKFGCR [NNMT_Y25_S29C] | 0.739 |
| SPRDTYSDRSG [CTPS1_Y567] | 0.375 |
| LSSEMCVKSFT [F5_Y2149_Y2149C_YF] | 0.726 |
| LNPDGYEKAYE [CPXM2_Y427] | 0.478 |
| AHLLQYNHRVK [LGALS3_Y221] | 0.459 |
| QDEPTYARSSK [PEAK1_Y616_H611Q] | 0.661 |
| LFMGDYVDRGF [PPP2CA_Y86_YF] | 0.61 |

biological target: FGFR1 (UniProt P11362); test: as above
Sequence (P11362 whole entry, looked up): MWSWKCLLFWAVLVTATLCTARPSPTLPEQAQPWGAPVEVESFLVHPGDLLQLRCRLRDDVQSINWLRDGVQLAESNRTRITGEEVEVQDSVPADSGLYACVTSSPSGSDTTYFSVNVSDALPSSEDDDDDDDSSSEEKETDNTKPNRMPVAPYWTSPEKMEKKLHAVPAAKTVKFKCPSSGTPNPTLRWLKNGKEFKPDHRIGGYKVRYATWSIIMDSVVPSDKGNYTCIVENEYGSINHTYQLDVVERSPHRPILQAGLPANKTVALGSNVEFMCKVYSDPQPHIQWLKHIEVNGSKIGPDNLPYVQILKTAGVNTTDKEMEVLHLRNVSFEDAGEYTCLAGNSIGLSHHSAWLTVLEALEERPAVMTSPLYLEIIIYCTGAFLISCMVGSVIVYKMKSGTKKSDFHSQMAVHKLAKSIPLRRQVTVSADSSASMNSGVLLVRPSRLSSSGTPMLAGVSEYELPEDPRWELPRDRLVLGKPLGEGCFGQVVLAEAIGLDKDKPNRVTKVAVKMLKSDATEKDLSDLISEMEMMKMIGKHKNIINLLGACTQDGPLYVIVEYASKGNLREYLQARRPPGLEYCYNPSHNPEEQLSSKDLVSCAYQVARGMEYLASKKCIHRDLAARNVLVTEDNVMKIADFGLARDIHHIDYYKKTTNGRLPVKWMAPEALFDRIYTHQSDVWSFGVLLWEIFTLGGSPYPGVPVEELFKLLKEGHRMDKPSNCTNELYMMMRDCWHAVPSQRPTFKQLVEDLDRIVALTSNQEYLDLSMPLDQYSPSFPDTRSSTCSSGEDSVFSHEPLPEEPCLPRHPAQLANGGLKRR

| Sequence | phosphorylation enrichment |
| --- | --- |
| EIIPFYGMSSY [FNDC3B_Y175_T179S] | 0.489 |
| LLLLFYVVRYC [MPZ_Y177] | 0.415 |
| NGEDPYAGSTD [XRCC1_Y515] | 0.646 |
| VTSLKYSTPPY [BRIP1_Y916_S919P] | 0.358 |
| CPFNLYAAQLS [HGD_Y40_E42A_YF] | 0.573 |
| HEEDNYIEMIP [NWD2_Y566_L569M] | 3.93 |
| MFQVQYNSSVD [LRFN1_Y458_YF] | 0.425 |
| PEADKYRLTFA [FGG_Y300_YF] | 0.626 |
| DEDEEYEYMNR [ERBB3_Y1197] | 0.511 |
| YLEKYYKFGCR [NNMT_Y25_S29C] | 0.569 |
| SPRDTYSDRSG [CTPS1_Y567] | 0.382 |
| LSSEMCVKSFT [F5_Y2149_Y2149C_YF] | 1.07 |
| LNPDGYEKAYE [CPXM2_Y427] | 0.633 |
| AHLLQYNHRVK [LGALS3_Y221] | 0.397 |
| QDEPTYARSSK [PEAK1_Y616_H611Q] | 0.603 |
| LFMGDYVDRGF [PPP2CA_Y86_YF] | 0.822 |

biological target: MERTK (UniProt Q12866); test: as above
Sequence (Q12866 whole entry, looked up): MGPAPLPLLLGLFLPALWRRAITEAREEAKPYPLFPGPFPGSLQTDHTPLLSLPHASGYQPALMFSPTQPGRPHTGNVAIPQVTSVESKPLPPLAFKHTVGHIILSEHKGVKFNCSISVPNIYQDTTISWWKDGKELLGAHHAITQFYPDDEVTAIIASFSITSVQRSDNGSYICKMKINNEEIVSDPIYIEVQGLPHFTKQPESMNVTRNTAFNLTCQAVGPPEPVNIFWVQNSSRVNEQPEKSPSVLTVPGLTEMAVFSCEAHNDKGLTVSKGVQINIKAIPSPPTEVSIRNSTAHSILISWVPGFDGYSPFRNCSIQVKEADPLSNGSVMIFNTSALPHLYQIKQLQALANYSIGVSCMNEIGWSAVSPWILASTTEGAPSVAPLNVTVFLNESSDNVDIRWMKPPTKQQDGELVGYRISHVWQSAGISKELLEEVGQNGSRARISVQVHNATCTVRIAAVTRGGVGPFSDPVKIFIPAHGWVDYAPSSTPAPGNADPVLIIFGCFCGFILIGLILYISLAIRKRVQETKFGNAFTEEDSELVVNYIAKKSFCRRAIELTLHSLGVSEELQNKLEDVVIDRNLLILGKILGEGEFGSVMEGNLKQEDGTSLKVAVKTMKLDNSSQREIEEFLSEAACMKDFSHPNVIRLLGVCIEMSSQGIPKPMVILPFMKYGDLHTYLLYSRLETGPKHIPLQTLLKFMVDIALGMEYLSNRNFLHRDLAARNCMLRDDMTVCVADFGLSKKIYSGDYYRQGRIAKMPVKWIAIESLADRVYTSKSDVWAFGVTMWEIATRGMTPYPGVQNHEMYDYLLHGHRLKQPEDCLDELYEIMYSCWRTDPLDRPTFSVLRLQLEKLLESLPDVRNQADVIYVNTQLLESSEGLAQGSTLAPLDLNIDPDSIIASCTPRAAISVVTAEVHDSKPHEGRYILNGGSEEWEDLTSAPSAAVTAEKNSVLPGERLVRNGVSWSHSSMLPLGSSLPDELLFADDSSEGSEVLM

| Sequence | phosphorylation enrichment |
| --- | --- |
| EIIPFYGMSSY [FNDC3B_Y175_T179S] | 0.728 |
| LLLLFYVVRYC [MPZ_Y177] | 0.54 |
| NGEDPYAGSTD [XRCC1_Y515] | 0.399 |
| VTSLKYSTPPY [BRIP1_Y916_S919P] | 0.387 |
| CPFNLYAAQLS [HGD_Y40_E42A_YF] | 1.7 |
| HEEDNYIEMIP [NWD2_Y566_L569M] | 1.13 |
| MFQVQYNSSVD [LRFN1_Y458_YF] | 0.398 |
| PEADKYRLTFA [FGG_Y300_YF] | 0.451 |
| DEDEEYEYMNR [ERBB3_Y1197] | 0.487 |
| YLEKYYKFGCR [NNMT_Y25_S29C] | 0.649 |
| SPRDTYSDRSG [CTPS1_Y567] | 0.322 |
| LSSEMCVKSFT [F5_Y2149_Y2149C_YF] | 0.854 |
| LNPDGYEKAYE [CPXM2_Y427] | 0.364 |
| AHLLQYNHRVK [LGALS3_Y221] | 0.42 |
| QDEPTYARSSK [PEAK1_Y616_H611Q] | 0.513 |
| LFMGDYVDRGF [PPP2CA_Y86_YF] | 0.396 |
